Data from patent US20180094053A1 (XOMA US, published 2018).
Like-named read-outs stand apart in the source and are kept apart here.

T1: Mouse IL-2 (mouse, UniProt P04351 21-169)
T1 sequence (looked up): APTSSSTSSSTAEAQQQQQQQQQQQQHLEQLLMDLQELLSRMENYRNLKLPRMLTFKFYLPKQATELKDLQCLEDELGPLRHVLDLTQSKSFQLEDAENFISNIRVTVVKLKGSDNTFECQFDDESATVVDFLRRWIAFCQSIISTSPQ

T2: CHOk1-IL2Ralpha
T2 construct: clone number not given; also called CHO/Rα; CHO/IL-2 Rα
T2 chain: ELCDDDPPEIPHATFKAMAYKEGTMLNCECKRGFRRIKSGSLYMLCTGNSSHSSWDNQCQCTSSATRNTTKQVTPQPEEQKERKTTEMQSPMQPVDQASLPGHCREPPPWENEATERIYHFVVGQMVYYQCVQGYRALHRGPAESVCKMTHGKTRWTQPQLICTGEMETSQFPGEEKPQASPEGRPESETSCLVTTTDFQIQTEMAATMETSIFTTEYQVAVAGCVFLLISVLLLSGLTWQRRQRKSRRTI

T3: Rat IL-2 (rat, UniProt P17108 21-155)
T3 sequence (looked up): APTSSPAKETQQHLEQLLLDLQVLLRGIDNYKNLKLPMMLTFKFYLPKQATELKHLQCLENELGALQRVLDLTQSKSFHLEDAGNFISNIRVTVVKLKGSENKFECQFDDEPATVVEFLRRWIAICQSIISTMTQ

T4: Rabbit IL-2 (rabbit, UniProt O77620 21-153, limits assumed)
T4 sequence (looked up): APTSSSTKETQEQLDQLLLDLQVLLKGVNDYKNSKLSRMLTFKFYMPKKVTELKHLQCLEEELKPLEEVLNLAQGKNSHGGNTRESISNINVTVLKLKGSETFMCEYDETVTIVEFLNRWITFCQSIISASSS

T5: human IL-2 Rβγ (IL-2 Rβ and γc) on cells (human, UniProt P14784 27-551; P31785 23-369)
T5 construct: whole, on cells; on CD25-depleted human primary NK cells in the pSTAT5 assay; also called CHO/Rβγ; CHO/IL-2 Rβγ (#20-21)
T5 sequence (looked up) 1: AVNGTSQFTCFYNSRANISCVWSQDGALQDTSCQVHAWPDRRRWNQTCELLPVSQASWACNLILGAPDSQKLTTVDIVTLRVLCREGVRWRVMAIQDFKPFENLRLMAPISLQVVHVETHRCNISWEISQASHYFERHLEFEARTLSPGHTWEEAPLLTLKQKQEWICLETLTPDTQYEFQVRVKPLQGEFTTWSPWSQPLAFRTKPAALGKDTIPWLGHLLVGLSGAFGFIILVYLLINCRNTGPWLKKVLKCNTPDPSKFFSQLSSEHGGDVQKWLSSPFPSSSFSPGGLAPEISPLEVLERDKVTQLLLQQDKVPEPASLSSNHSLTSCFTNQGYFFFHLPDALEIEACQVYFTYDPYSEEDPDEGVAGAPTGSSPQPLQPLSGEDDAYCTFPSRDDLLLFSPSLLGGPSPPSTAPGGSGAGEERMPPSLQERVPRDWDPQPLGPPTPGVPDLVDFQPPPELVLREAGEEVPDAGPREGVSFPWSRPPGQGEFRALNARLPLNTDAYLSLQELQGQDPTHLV
T5 sequence (looked up) 2: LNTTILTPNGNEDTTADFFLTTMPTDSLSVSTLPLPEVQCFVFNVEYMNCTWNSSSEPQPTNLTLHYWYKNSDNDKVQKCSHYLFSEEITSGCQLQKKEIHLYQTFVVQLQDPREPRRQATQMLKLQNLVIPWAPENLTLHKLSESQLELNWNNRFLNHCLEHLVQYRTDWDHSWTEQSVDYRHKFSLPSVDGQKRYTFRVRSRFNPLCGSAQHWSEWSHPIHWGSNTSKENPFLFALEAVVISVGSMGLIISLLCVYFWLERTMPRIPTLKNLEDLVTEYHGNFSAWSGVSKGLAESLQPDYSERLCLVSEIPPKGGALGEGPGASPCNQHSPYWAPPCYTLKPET


Tests used:
Mouse IL-2 [1] = biological target: T1, Mouse IL-2; assay: listed for comparison in the SPR species cross-reactivity table
Recombinant human IL-2 [2] = biological target: T6, Recombinant human IL-2 (human, UniProt P60568 21-153); assay: cell-based or functional assay
Recombinant human IL-2 [3] = biological target: T6, Recombinant human IL-2; assay: listed for comparison in the SPR table; method for this antibody not described
Recombinant human IL-2 [4] = biological target: T6, Recombinant human IL-2; assay: cell-based or functional assay; remark: listed apart in the source
CHOk1-IL2Ralpha = biological target: T2, CHOk1-IL2Ralpha; assay: flow cytometry, IgG binding (MFI); antibody titrated on CHOk1-IL2Ralpha cells without IL2
Procedure: (§1) After phage-derived antibody fragments were reformatted into full-length human IgGs, the purified antibodies were screened on CHO/Rα, CHO/Rβ, CHO/Rβγ, and parental CHO-K1 cells grown and stained as described above. […] This was allowed to incubate at 4° C. for 1 to 1.5 hours. Bound antibody was detected by the addition of anti-human heavy chain and light chain (Jackson Immuno Research #109-136-088) at 1:1000 and incubating at 4° C. for 30 minutes to 1 hour. Samples were analyzed using BD FACs Canto flow cytometer.

Recombinant human IL-2 [5] = biological target: T6, Recombinant human IL-2; assay: cell-based or functional assay; remark: listed apart in the source
Recombinant human IL-2 [6] = biological target: T6, Recombinant human IL-2; assay: cell-based or functional assay; remark: listed apart in the source
Recombinant human IL-2 [7] = biological target: T6, Recombinant human IL-2; assay: cell-based or functional assay; remark: listed apart in the source
Recombinant human IL-2 [8] = biological target: T6, Recombinant human IL-2; assay: cell-based or functional assay; remark: listed apart in the source
Mouse IL-2 [9] = biological target: T1, Mouse IL-2; assay: SPR (Biacore 4000), IgG captured on anti-human IgG Fc, IL-2 30 nM to 1 nM; affinity estimate
Procedure: (§2) Antibody affinities were measured by SPR using the Biacore 4000 with a standard capture methodology. Briefly, anti-human IgG (Fc specific) from an anti-human antibody capture kit (Biacore) was immobilized onto spots 1, 2, 4, and 5 of all four flow cells of a CM-5 sensor chip by amine coupling according to the manufacturer's instructions. Running buffer was HBS-EP+ with 1% BSA. […] Data were analyzed using the Biacore 4000 Evaluation software.
(§3) These sequences were imported into vector NTI® (Lifetech) and aligned using the alignx tool.

Rat IL-2 [10] = biological target: T3, Rat IL-2; assay: as above
Procedure: as §2, §3

Rabbit IL-2 = biological target: T4, Rabbit IL-2; assay: as above
Procedure: as §2, §3

[11] = biological target: T5, human IL-2 Rβγ (IL-2 Rβ and γc) on cells; assay: flow cytometry, IgG binding (MFI); antibody titrated on CHOk1-IL2Rbeta-gamma (20-21) cells without IL2
Procedure: as §1

Recombinant human IL-2 [12] = biological target: T6, Recombinant human IL-2; assay: SPR (Biacore 4000), IgG captured on anti-human IgG Fc, rhIL-2 0.11-10 nM
Procedure: as §2

Mouse IL-2 [13] = biological target: T1, Mouse IL-2; assay: SPR (Biacore 4000), IgG captured on anti-human Fc, IL-2 injected
Rat IL-2 [14] = biological target: T3, Rat IL-2; assay: as above

| Molecule | Fold EC50 shift of IL-2-induced proliferation, CTLL-2 (muRαβγ) (Recombinant human IL-2 [4]) [fold] | binding result (CHOk1-IL2Ralpha) | Fold EC50 shift of IL-2-induced proliferation, BaF3/IL-2 HuRβγ (Recombinant human IL-2 [5]) [fold] | Fold EC50 shift of IL-2-induced proliferation, NK92 (huRαβγ) (Recombinant human IL-2 [5]) [fold] | Ratio (huRαβγ/Rβγ) of fold EC50 shifts, proliferation (Recombinant human IL-2 [5]) | pSTAT5a,b Ratio of EC50s (Rαβγ/Rβγ), murine cells (Recombinant human IL-2 [6]) | pSTAT5a,b fold EC50 shift, CTLL-2 (muRαβγ) (Recombinant human IL-2 [6]) [fold] | pSTAT5a,b fold EC50 shift, Mouse Primary NK cells (muβγ) (Recombinant human IL-2 [6]) [fold] | pSTAT5a,b Ratio of EC50s (Rαβγ/Rβγ), human cells (Recombinant human IL-2 [7]) | pSTAT5a,b fold EC50 shift, Human Primary NK cells (huRβγ) (Recombinant human IL-2 [7]) [fold] | pSTAT5a,b fold EC50 shift, NK92 (huRαβγ) (Recombinant human IL-2 [7]) [fold] | EC50 of IL-2-induced pSTAT5a,b in CD25-depleted human primary NK cells with 100 nM antibody (Recombinant human IL-2 [8]) [pM] | EC50 of IL-2-induced pSTAT5a,b in NK-92 cells with 100 nM antibody (Recombinant human IL-2 [8]) [pM] | EC50 of IL-2-induced pSTAT5a,b in mouse primary NK cells with 100 nM antibody (Recombinant human IL-2 [8]) [pM] | Kd (Mouse IL-2 [9]) [nM] | Kd (Rat IL-2 [10]) [nM] | Kd (Rabbit IL-2) [nM] | Kd (Recombinant human IL-2 [12]) [nM] | koff (Recombinant human IL-2 [12]) [s⁻¹] | kon (Recombinant human IL-2 [12]) [M⁻¹ s⁻¹] | also measured |
| --- | --- | --- | --- | --- | --- | --- | --- | --- | --- | --- | --- | --- | --- | --- | --- | --- | --- | --- | --- | --- | --- |
| MAB602 (antibody) |  |  |  |  |  |  |  |  |  |  |  |  |  |  |  |  |  |  |  |  | Kd (Mouse IL-2 [1]): 10 nM; EC50 of IL-2-induced pSTAT5a,b in NK-92 cells with 100 nM antibody (Recombinant human IL-2 [2]): 900 pM; EC50 of IL-2-induced pSTAT5a,b in mouse primary NK cells with 100 nM antibody (Recombinant human IL-2 [2]): 361 pM; Kd (Recombinant human IL-2 [3]): 0.12 nM |
| XPA.92.041 (antibody, V domains shown, Tested as purified full-length human IgG) VH: EVQLVQSGAEVKKPGESLKISCKGSGYNFDTYWIGWVRQMPGRGLEWMGTIYPADSDTRYSPSFQGQVTTSADKSISTAYLQWGSLRASDTAMYYCARFSSSAYDIWGQGTMVTVSS VL: SYELTQPPSVSVSPGQTARITCSGDALPRQFAYWYQQKPGQAPVLVIYKDTERPSGIPERFSGSSSGTTVTLTISGVQAEDEADYYCQSADSSGTYHVFGGGTQLTVLG | 58 | no binding | 3.9 | 35 | 9 | 34 | 404 | 12 | 35 | 35 | 1230 | 4520 | 1150 | 1350 | 40 | 1 | 0.5 | 0.058 | 0.00032 | 5.6e+06 | binding result [11]: no binding |
| XPA.92.042 (antibody, V domains shown, Tested as purified full-length human IgG) VH: EVQLVQSGTEVKKAGDSLKISCKGSGYNFDTYWIGWVRQMPGRGLEWMGTIYPADSDTRYSPSFQGQVTMSADKSISTAYLQWGSLRASDTAMYYCARFSSSAYDIWGQGTMVTVSS VL: SYELTQPPSVSVSPGQTARITCSGDALPRKFAYWYQQKSGQAPVLVIYQDTKRPSGIPERFSGSSSGTTVTLTISDVQAEDDADYYCQSADRSDSYVFGAGTKLTVLG | 156 | no binding | 5 | 52 | 10 | 57 | 793 | 14 | 45 | 41 | 1860 | 5120 | 1700 | 1660 | 10 | 6 | 0.6 | 0.028 | 0.00025 | 8.9e+06 | binding result [11]: no binding |
| XPA.92.099 (antibody, V domains shown, Tested as purified full-length human IgG; also called mAb99; clone 99) VH: QVQLVESGGGLVKPGRSLRLSCAASGFTFNRYAMSWVRQAPGKGLEWVAMISFDGGNQYYTDSVSGRFTISRDNSKTTLFLQMDSLRTEDTAVYYCVRSPAGDWVAYFDYWGQGTLVTVSS VL: DIQMTQSPSSLSASIGDRVTIPCQASEDISNHLSWYQQKPGKAPKPLIFDASDLETGVPSRFSGSGSGTDFALTISSLRPDDFATYYCHQYHDYPSYTFGHGTKLEIKR | 54 |  | 2.4 | 22 | 9 | 17 | 293 | 17 | 21 | 24 | 495 | 3050 | 463 |  |  |  | 0.09 | 0.044 | 0.00024 | 5.5e+06 | binding result (Mouse IL-2 [13]): no binding (tested: IL-2 injected from 30 nM to 1 nM); binding result (Rat IL-2 [14]): no binding (tested: IL-2 injected from 30 nM to 1 nM) |
| XPA.92.019 (antibody, V domains shown, Tested as purified full-length human IgG; also called mAb19) VH: EVQLVESGGGLVQPGRSLRLSCAASGFTFSYYGMHWVRQAPGKGLEWVADISNDGSNKYYADSVKGRFTISRDNSKTTLYLQMNSLRPEDTAVYYCATPYYDSSGLDYWGQGTLVTVSS VL: SYELTQPPSVSVSPGQTARITCSGDALPKRFAYWYQQKAGQAPVLVIYEDNKRPSGIPETLSGSSSGTTATLTISGAQEEDEADYYCYSTDNTGGLWVFGGGTKLTVLG | 130 | no binding | 5.2 | 33 | 6 | 35 | 523 | 15 | 24 | 40 | 966 | 5040 | 900 | 1720 | 100 |  | 0.2 | 0.0095 | 3.4e-05 | 3.7e+06 |  |
